The source of these data is US20260124324A1, “PHOTOCLICK CHEMISTRY OF SILK FOR TEMPORARY UV TATTOOS” (Trustees of Tufts College, priority 2023, published 2026).

The pKa is the negative logarithm of the acid dissociation constant.

For data set [1] the following is noted: DAT precursor, UV-Vis absorption.
Description: Spectroscopy was performed using a Synergy HT plate reader in with sample Corning Costar UV-transparent 96 well plates (Corning 3635). Initially samples were diluted to 1 mg/mL in either IPA or DIW and a dilution curve was made with each step reducing the concentration by half. The concentration chosen for measurement was the most concentrated sample that had the peak of interest entirely below 1.0 absorption units. When an appropriate concentration was found 100 μL of sample was then loaded into each well with samples loaded in triplicate. If the standard deviation between replicates exceeded 0.05 AU the measurement was repeated with fresh samples.
For data set [2] the following is noted: pyrazoline bound to SilMA, derived from the named DAT. The method, then: Fluorophores bound to either silk or PEG-DA were generated by dissolving a DAT precursor to a final concentration of 100 μM in water for silk-bound fluorophores and either DIW, IPA or ethyl acetate (EtAc) for PEG-DA-bound fluorophores. These were reacted by exposure to 302 nm light (specs) for 10 minutes under constant stirring. To an opaque black 96-well plate (Corning 3915) was added 3 separate 100 μL aliquots of fluorophore solution. These were measured by a Molecular Devices SpectraMax M2 plate reader, exciting at either 300, 365 or 405 nm and recording spectra from 25 nm […] the excitation wavelength down to 650 nm with a 5 nm resolution.

Data set [3] in a line: Fluorescence titration (pH dependence, pKa) of PEG-DA-bound pyrazolines. Format: physicochemical. On the procedure:
A 100 mL beaker was placed on a stir plate and filled with 50 mL of either deionized water or isopropyl alcohol and a magnetic stirrer. Fluorescent pyrazoline bound to PEG was added to a final concentration of 1 mg/mL and stirred until homogenous. An Ocean Optics SR fiber spectrometer was attached to a UV-Vis optical fiber (200-800 nm, 200 μm core diameter) and the fiber was mounted such that it was normal to the surface of the liquid. A 365 nm LED was placed at such that it illuminated the beaker from the side, perpendicular to the orientation of the fiber. If deionized water was used as the solvent, a pH probe was immersed in the liquid as well. The LED was switched on and the spectrometer exposure time was adjusted until the fluorescent peak reached at least 1000 counts or 3 seconds of exposure, whichever occurred first. During capture 5 exposures were averaged and smoothed by a 9-point moving average. […]
To determine the exact pH dependance of the fluorescence transition, fluorescence was monitored during an acid-base titration with a custom optical set-up (FIG. 12). […]
Resulting titrations generally produced either a sigmoidal curve with high and low pH stable regimes (FIG. 14A) or a static, pH independent fluorescence (FIG. 14B). […] The pKa values estimated by fluorescence are generally within their estimated pKa windows, with the exception of the amino derivatives (FIG. 14D). […]

Data set [4] in a line: Patterned fluorescent films (SilMA or SF/PEG-DA). Format: physicochemical. On the procedure:
Multispectral imaging was performed with a Nuance FX multispectral imaging system with a Canon macro lens and illuminated by 365 nm light. Exposure times were varied by sample and were selected by automatic exposure timing in the acquisition software. Images were processed using Nuance software and spectral elements were picked by hand from at least 20 sample locations. Raw processed spectra had large discontinuities introduced by the internal monochromator, which were removed with a custom algorithm.
A glass coverslip (22×22 mm) was placed onto the vacuum chuck of a Laurell WS-650 spin coater. Onto the surface was pipetted 100 μL of silk solution (7.0% w/w silk fibroin, 0.7% w/w polyethylene glycol diacrylate), which was manually spread to cover the entire surface. […] The sample was then water vapor annealed by being placed in a Memmert UN 30 Plus humidity-controlled oven at 45 C and 90% relative humidity. A timer was started once the oven had reached 90% humidity after then drop due to sample addition and allowed to sit in the oven for 5.0 minutes. Once removed the sample was loaded onto the vacuum chuck again and 30 μL of DAT solution (5 mg/mL DAT in isopropyl alcohol) was dropped onto the surface. A combined spreading/evaporation program was run with a single 20 second phase (4000 RPM, 250 RPM/sec). The sample was then covered by a photomask and exposed to 302 nm UV light (Labortechnik UVLMS-38 8 Watt UV multiwavelength lamp) to induce the photoclick reaction. If a multi-emitter film was to be fabricated, then a PDMS isolation layer must be applied if the lower layer is composed of SF/PEG-DA. To form the isolation layer, Sylgard 184 monomer was mixed with curing agent in a 10:1 ratio and 500 μL was applied to the glass slide by spin coating (5 sec, 500 RPM spread, 30 sec 5000 RPM thinning, 500 RPM/sec acceleration). This was cured by heating the slide on a 80 C hotplate for 30 minutes. The subsequent layer could then be applied in an identical manner to the first. If SilMA was used as the lower layer, the isolation layer is not needed and the second layer can be applied directly.
Films were fabricated with a spin-coating process, where either SilMA or a mixture of SF and PEGDA were dropped onto glass coverslips and spun to produce uniform films. Afterwards the films were water vapor annealed to recrystallize them and lock in the position of the polymer(s). Next a solution of the DAT dye in IPA or DI water was drop cast onto the surface, then spun to remove excess solution. This film was then exposed to 302 nm UV light through a quartz photomask or steel shadow mask for 30 seconds. The DAT impregnated films reacted promptly and attained 60% of their full fluorescent brightness in 30 seconds and their maximum brightness in less than 5 minutes (FIG. 21A,B). […]

For data set [5] the following is noted: literature values of related compounds; cited from earlier work.

Read-outs that look alike come from different tables or passages of the source.

For `CCOC(=O)c1ccc(-n2nnc(-c3ccc(C(=O)O)cc3)n2)cc1` [DAT-2, 2-(4-(ethoxycarbonyl)-phenyl)-5-(4-carboxyphenyl)-2H-tetrazole], the “Excitation λmax” value in data set [1] (peak 1) worked out at 265 nm; in data set [2] (pH 3), 370 nm; in data set [2] (pH 10), 350 nm. Moreover, the “Emission λmax” value in data set [2] (pH 3) is recorded as 460 nm; in data set [2] (pH 10) it was 455 nm.

Regarding `O=C(O)c1ccc(-c2nnn(-c3ccc(S(=O)(=O)O)cc3)n2)cc1` [DAT-3, 2-(4-sulfophenyl)-5-(4-carboxyphenyl)-2H-tetrazole], the “Excitation λmax” value in data set [1] (peak 1) was 279 nm; in data set [2] (pH 3), 385 nm; in data set [2] (pH 10), 375 nm. For the same compound, the “Emission λmax” value in data set [2] (pH 3) was determined as 490 nm; in data set [2] (pH 10), 460 nm.

Turning to `O=C(O)c1ccc(-c2nnn(-c3ccc(O)cc3)n2)cc1` [DAT-4, 2-(4-hydroxyphenyl)-5-(4-carboxyphenyl)-2H-tetrazole], the entries for the “Excitation λmax” value in data set [1] (peak 1), in data set [2] (pH 3) and in data set [2] (pH 10) were 296 nm, 335 nm and 360 nm, respectively. Moreover, the “Emission λmax” value in data set [2] (pH 3) and in data set [2] (pH 10) was 530 nm throughout.

As for `O=C(O)c1ccc(-c2nnn(-c3ccc(B(O)O)cc3)n2)cc1` [DAT-5, 2-(4-boronophenyl)-5-(4-carboxyphenyl)-2H-tetrazole], the “Excitation λmax” value in data set [1] (peak 1) was determined as 285 nm; in data set [2] (pH 3) it was 370 nm; in data set [2] (pH 10), 380 nm. Further, the “Emission λmax” value in data set [2] (pH 3) is 505 nm; in data set [2] (pH 10) it was 475 nm. Further, the “pH at which highly emissive state is centered” value in data set [3] was found to be 6.

Take `O=[N+]([O-])c1ccc(-c2nnn(-c3ccccc3)n2)cc1` [DAT-6, 5-(4-nitrophenyl)-2-phenyl-2H-tetrazole]: the “Excitation λmax” value in data set [1] (peak 1) is 296 nm.

Consider `O=[N+]([O-])c1cccc(-c2nnn(-c3ccccc3)n2)c1` [DAT-7, 5-(3-nitrophenyl)-2-phenyl-2H-tetrazole], for which the “Excitation λmax” value in data set [1] (peak 1) worked out at 266 nm.

Turning to `Nc1ccc(-c2nnn(-c3ccccc3)n2)cc1` [DAT-8, 5-(4-aminophenyl)-2-phenyl-2H-tetrazole], in data set [1] (peak 1), the “Excitation λmax” value is listed as 294 nm.

Turning to `Nc1cccc(-c2nnn(-c3ccccc3)n2)c1` [DAT-9, 5-(3-aminophenyl)-2-phenyl-2H-tetrazole], the “Excitation λmax” value in data set [1] (peak 1) amounted to 271 nm; in data set [2] (pH 3), 365 nm; in data set [2] (pH 10), 375 nm. The “fluorescence of resulting pyrazoline in film” value is “visible” in data set [4] (PEG-DA/SF films) and “nearly completely quenched” in data set [4] (SilMA films). Moreover, the “Emission λmax” value is listed as 455 nm in data set [2] (pH 3) and 460 nm in data set [2] (pH 10).

With `Oc1ccc(-c2nnn(-c3ccccc3)n2)cc1` [DAT-10, 5-(4-hydroxyphenyl)-2-phenyl-2H-tetrazole], the “Excitation λmax” value in data set [1] (peak 1) is on record as 253 nm; in data set [1] (peak 2), 281 nm; in data set [1] (peak 3), 300 nm; in data set [2] (pH 10), 355 nm. Also, the “fluorescence of resulting pyrazoline in film” value is reported as “visible” in data set [4] (PEG-DA/SF films) and “nearly completely quenched” in data set [4] (SilMA films). The “Emission λmax” value in data set [2] (pH 3) and in data set [2] (pH 10) was 435 nm throughout.

Turning to `OB(O)O` [boric acid], the pKa in data set [5] is reported as 9.15.
